Data: US20070042463A1 (BURNHAM INSTITUTE, published 2007)
Values belong to the binder of their own block, whether it stands above or below them.

B2: SIP-L (other)
chain: MASEELQKDLEEVKVLLEKATRKRVRDALTAEKSKIETEIKNKMQQKSQKKAELLDNEKPAAVVAPITTGYTVKISNYGWDQSDKFVKIYITLTGVHQVPTENVQVHFTERSFDLLVKNLNGKSYSMIVNNLLKPISVEGSSKKVKTDTVLILCRKKVENTRWDYLTQVEKECKEKEKPSYDTETDPSEGLMNVLKKIYEDGDDDMKRTINKAWVESREKQAKGDTEF
B4: empty (LexA DNA-binding domain without insert) (other, UniProt P0A7C2 1-202, looked up)
chain: MKALTARQQEVFDLIRDHISQTGMPPTRAEIAQRLGFRSPNAAEEHLKALARKGVIEIVSGASRGIRLLQEEEEGLPLVGRVAAGEPLLAQQHIEGHYQVDPSLFKPNADFLLRVSGMSMKDIGIMDGDLLAVHKTQDVRNGQVVVARIDDEVTVKRLKKQGNKVELLPENSEFKPIVVDLRQQSFTIEGLAVGVIRNGDWL

Experiments:
SIP-L [1] = biological target: B2; experiment: yeast two-hybrid; LexA-SIP-L with B42-SIP-S; Leu+ growth - and β-Gal -
Siah-1 (22-298) = biological target: T1, Siah-1 (22-298) (human, UniProt Q8IUQ4 6-282); experiment: yeast two-hybrid library screen; LexA-Siah-1 (22-298) bait, human embryonic brain cDNA clones
T1 construct: also called Siah-1α amino acids 22-298; LexA/Siah-1 bait
T1 sequence: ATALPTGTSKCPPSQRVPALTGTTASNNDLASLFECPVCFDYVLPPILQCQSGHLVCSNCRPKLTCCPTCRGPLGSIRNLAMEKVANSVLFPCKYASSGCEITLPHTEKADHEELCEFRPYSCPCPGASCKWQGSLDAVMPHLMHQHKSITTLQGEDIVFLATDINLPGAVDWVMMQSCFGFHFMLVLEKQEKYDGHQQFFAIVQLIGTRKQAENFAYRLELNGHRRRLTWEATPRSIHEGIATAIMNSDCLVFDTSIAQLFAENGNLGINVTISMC

[2] = biological target: the molecule itself; experiment: yeast two-hybrid; LexA-SIP-L with B42-SIP-L; growth on leucine-deficient media (Leu+)
SAF-1 = biological target: T2, SAF-1 (human, UniProt Q9Y3I1 92-522); experiment: yeast two-hybrid (FIG. 6A)
T2 construct: also called SAF-1α; Skp1-Associated F-box protein-1
T2 sequence: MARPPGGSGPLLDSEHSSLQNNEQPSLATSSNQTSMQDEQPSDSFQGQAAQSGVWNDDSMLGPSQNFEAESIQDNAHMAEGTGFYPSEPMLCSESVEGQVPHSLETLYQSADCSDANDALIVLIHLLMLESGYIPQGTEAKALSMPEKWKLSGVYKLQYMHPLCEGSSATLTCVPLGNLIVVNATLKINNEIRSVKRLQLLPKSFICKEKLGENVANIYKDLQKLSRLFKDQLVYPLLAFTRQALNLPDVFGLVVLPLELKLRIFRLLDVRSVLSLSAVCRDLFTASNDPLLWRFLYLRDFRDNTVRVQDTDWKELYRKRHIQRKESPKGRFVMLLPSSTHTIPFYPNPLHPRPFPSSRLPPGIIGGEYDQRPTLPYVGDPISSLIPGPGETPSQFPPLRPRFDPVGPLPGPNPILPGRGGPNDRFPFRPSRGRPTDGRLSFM
Protocol: Transformed cells were grown on semi-solid media lacking leucine or containing leucine as a control.

SIP-L [3] = biological target: B2; experiment: yeast two-hybrid; empty LexA with B42-SIP-L; Leu+ growth - and β-Gal -
[4] = biological target: B4; experiment: yeast two-hybrid; empty LexA with B42-APC(2681-2843); Leu+ growth - and β-Gal -
HA-TRAF6 = experiment: cell-based or functional assay

B1: SIP-S (other)
chain: MASEELQKDLEEVKVLLEKATRKRVRDALTAEKSKIETEIKNKMQQKSQKKAELLDNEKPAAVVAPITTGYTDGISQISL
notes: B42 fusion in yeast two-hybrid
- binding result (SIP-L [1]): no binding
- binding result (Siah-1 (22-298)): binds

Binder: B2
- binding result [2]: binds
- binding result (Siah-1 (22-298)): binds

Binder: B4
- binding result (SIP-L [3]): no binding

B6: ODC-RANK peptide (protein, part only; not given: Order of parts uncertain, part only)
chain, part: MEQKLISEEDLMNNFGNEEFDCHFLDEGFTAKDILDQKINEVSSSDDKDAFYVADLGDILKKHLRWLKALPRVTPFYAVKCNDSKAIVKTLAATGTGFDCASKTEIQLVQSLGVPPERIIYANPCKQVSQIKYAANNGVQMMTFDSEVELMKVARAHPKAKLVLRIATDDSKAVCRLSVKFGATLRTSRLLLERAKELNIDVVGVSFHVGSGCTDPETFVQAISDARCVFDMGAEVGFSMYLLDIGGGFPGSEDVKLKFEEITGVINPALDKYFPSDSGVRIIAEPGRYYVASAFTLAVNIIAKKIVLKEQTGSDDEDESSEQTFMYYVNDGVYGSFNCILYDHAHVKPLLQKRPKPDEKYYSSSIWGPTCDGLDRIVERCDLPEMHVGDWMLFENMGAYTVAAASTFNGFQRPTIYYVMSGPAWQLMQQFQNPDFPPEVEEQDASTLPVSCAWESGMKRHRAACASASINVAGGGSGGGGSGGGGSGGGGS
- half-life of HA-TRAF6 (35S pulse-chase), ODC-RANKp with AZ (HA-TRAF6): < 1 h
- half-life of HA-TRAF6 (35S pulse-chase), ODC-RANKp without AZ (HA-TRAF6): 2 h

Results, then the binder that gave them:

- binding result (SAF-1): no binding
B3: Siah-1 (other)
chain: MVIIIFLLPPYVFISEMSRQTATALPTGTSKCPPSQRVPALTGTTASNNDLASLFECPVCFDYVLPPILQCQSGHLVCSNCRPKLTCCPTCRGPLGSIRNLAMEKVANSVLFPCKYASSGCEITLPHTEKADHEELCEFRPYSCPCPGASCKWQGSLDAVMPHLMHQHKSITTLQGEDIVFLATDINLPGAVDWVMMQSCFGFHFMLVLEKQEKYDGHQQFFAIVQLIGTRKQAENFAYRLELNGHRRRLTWEATPRSIHEGIATAIMNSDCLVFDTSIAQLFAENGNLGINVTISMC
notes: also called Siah-1α; Siah 1α

- binding result [4]: no binding
- binding result (Siah-1 (22-298)): binds
B5: APC (2681-2843) (other, human, UniProt P25054 2681-2843, looked up)
chain: PVIDSVSEKANPNIKDSKDNQAKQNVGNGSVPMRTVGLENRLNSFIQVDAPDQKGTEIKPGQNNPVPVSETNESSIVERTPFSSSSSSKHSSPSGTVAARVTPFNYNPSPRKSSADSTSARPSQIPTPVNNNTKKRDSKTDSTESSGTQSPKRHSGSYLVTSV
notes: LexA or B42 fusion in yeast two-hybrid
